# According to IntAct's records for PubMed 21455181:
# B1: Sharpin (Homo sapiens), Q9H0F6 (parent)
# chain: MAPPAGGAAAAASDLGSAAVLLAVHAAVRPLGAGPDAEAQLRRLQLSADPERPGRFRLELLGAGPGAVNLEWPLESVSYTIRGPTQHELQPPPGGPGTLSLHFLNPQEAQRWAVLVRGATVEGQNGSKSNSPPALGPEACPVSLPSPPEASTLKGPPPEADLPRSPGNLTEREELAGSLARAIAGGDEKGAAQVAAVLAQHRVALSVQLQEACFPPGPIRLQVTLEDAASAASAASSAHVALQVHPHCTVAALQEQVFSELGFPPAVQRWVIGRCLCVPERSLASYGVRQDGDPAFLYLLSAPREAPATGPSPQHPQKMDGELGRLFPPSLGLPPGPQPAASSLPSPLQPSWSCPSCTFINAPDRPGCEMCSTQRPCTWDPLAAAST
# Variants of: B1
# Settings: with rnf31_human RNF31, Q96EP0
# Sequence of rnf31_human RNF31, Q96EP0 (Q96EP0 whole entry): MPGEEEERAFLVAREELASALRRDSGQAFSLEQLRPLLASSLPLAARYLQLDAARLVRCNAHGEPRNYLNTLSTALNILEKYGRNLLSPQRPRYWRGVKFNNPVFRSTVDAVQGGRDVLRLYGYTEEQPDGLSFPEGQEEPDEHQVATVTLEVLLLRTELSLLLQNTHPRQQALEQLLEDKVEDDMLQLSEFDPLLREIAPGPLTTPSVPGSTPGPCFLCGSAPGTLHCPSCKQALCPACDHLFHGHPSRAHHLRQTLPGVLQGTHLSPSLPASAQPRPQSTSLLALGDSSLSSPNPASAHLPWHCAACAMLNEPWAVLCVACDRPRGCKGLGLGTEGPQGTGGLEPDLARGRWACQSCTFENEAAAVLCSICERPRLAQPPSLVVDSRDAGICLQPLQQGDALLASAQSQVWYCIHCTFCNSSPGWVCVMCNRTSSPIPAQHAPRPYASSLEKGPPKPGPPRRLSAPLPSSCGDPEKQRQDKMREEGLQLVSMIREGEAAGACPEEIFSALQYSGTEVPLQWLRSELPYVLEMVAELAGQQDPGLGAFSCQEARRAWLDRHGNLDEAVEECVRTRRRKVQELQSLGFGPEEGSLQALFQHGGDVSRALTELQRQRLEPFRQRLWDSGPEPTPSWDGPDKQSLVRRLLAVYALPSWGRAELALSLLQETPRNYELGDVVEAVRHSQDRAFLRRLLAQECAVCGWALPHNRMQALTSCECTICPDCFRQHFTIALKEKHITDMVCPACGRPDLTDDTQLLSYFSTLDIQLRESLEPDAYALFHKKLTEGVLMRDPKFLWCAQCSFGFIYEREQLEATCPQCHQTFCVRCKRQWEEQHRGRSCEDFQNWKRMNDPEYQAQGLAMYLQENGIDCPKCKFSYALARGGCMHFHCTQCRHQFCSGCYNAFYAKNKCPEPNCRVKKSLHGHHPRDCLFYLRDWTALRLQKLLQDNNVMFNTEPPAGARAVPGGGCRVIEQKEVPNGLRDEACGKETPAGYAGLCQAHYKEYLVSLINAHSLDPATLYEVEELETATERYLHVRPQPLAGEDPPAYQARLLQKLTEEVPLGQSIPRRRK
row,effect of a mutation on the interaction,Variant
1,disrupting interaction,MAPPAGGAAAAASDLGSAAVLLAVHAAVRPLGAGPDAEAQLRRLQLSADPERPGRFRLELLGAGPGAVNLEWPLESVSYTIRGPTQHELQPPPGGPGTLSLHFLNPQEAQRWAVLVRGATVEGQNGSKSNSPPALGPEACPVSLPSPPEASTLKGPPPEADLPRSPGNLTEREELAGSLARAIAGGDEKGAAQVAAVLAQHRVALSVQLQEACFPPGPIRLQVTLEDAASAASAASSAHVALQVHPHCTVAALQEQVFSELGFPPAVQRWVAGRCLCVPERSLASYGVRQDGDPAFLYLLSAPREAPATGPSPQHPQKMDGELGRLFPPSLGLPPGPQPAASSLPSPLQPSWSCPSCTFINAPDRPGCEMCSTQRPCTWDPLAAAST [I272A]
